Assay results reported in paper PMC8097335, “A High‐Affinity Calmodulin‐Binding Site in the CyaA Toxin Translocation Domain is Essential for Invasion of Eukaryotic Cells” (Advanced Science, 2021).

Target: T1, calmodulin (calcium-loaded: holo-CaM) (UniProt P0DP23)
T1 construct: also called apo-CaM (without calcium)
Assay: other fluorescence titration + ITC
Conditions: both partners purified

| Binder | fold decrease of affinity for CaM against P454 | Kd |
| --- | --- | --- |
| ASAHWGQRALQGAQAVAAAQRLVSAAALMTQ [P454 H477S-I479A peptide] | ~20 fold | – |
| ASAHWGQEALQGAQAVAAAQELVHAIALMTQ (also called TAMRA-P454 R12E) [P454 R12E peptide (P454 with R461E and R474E)] | – | 22.7 µM |
| ASAHWGQRALQGAQAVAAAQRAVSAAALMTQ [P454 L475A-H477S-I479A peptide] | ~20 fold | – |
| ASAHAGQRAAQGAQAVAAAQRLVHAIALMTQ [P454 W458A-L463A peptide] | 4 fold | – |
